The results in this text go back to paper PMC3152195.

In this assay the target is GST-fusion protein containing the UBA domain of Dsk2p (residues 328–373) (UniProt P48510). Description: pull-down.
Chain of UniProt P48510 (P48510 328-373): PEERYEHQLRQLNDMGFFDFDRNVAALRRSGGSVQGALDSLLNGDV

Regarding “endogenous GLUT4 in 3T3-L1 adipocytes (ubiquitinated) (from UniProt P14142 1-509) (natural protein)”, the percent of total cellular GLUT4 pulled down by GST–UBA (taken as ubiquitinated) worked out at 0.1%.
